Source: US9840539B2, “High affinity digoxigenin binding proteins” (UNIVERSITY OF WASHINGTON THROUGH ITS CENTER FOR …, priority 2013, dated 2017)

B1: DIG10.3: DIG10.2 variant with C23S, H90L, V92A, A99Y, S103A, L105W; SEQ ID NO: 15 (protein)
chain: MNAKEIVVHALRLLENGDARGWSDLFHPEGVLEYPYPPPGYKTRFEGRETIWAHMRLFPEYMTIRFTDVQFYETADPDLAIGEFHGDGVLTASGGKLAYDYIAVWRTRDGQILLYRLFFNPLRVLEPLGGVEAAAKIVQGA
modifications: (130)..(141) amino acids are optionally absent
B2: DIG10.3 Y34F/Y99F/Y101F: DIG10.3 triple mutant, SEQ ID NO: 22 (protein)
chain: MNAKEIVVHALRLLENGDARGWSDLFHPEGVLEFPYPPPGYKTRFEGRETIWAHMRLFPEYMTIRFTDVQFYETADPDLAIGEFHGDGVLTASGGKLAFDFIAVWRTRDGQILLYRLFFNPLRVLEPLGGVEAAAKIVQGA
modifications: (130)..(141) amino acids are optionally absent
B3: DIG10.3 Y101F: DIG10.3 point mutant, SEQ ID NO: 19 (protein)
chain: MNAKEIVVHALRLLENGDARGWSDLFHPEGVLEYPYPPPGYKTRFEGRETIWAHMRLFPEYMTIRFTDVQFYETADPDLAIGEFHGDGVLTASGGKLAYDFIAVWRTRDGQILLYRLFFNPLRVLEPLGGVEAAAKIVQGA
modifications: (130)..(141) amino acids are optionally absent

Key:
[1] = Fluorescence polarization equilibrium competition binding assay, unlabeled digoxigenin; conditions: for Ki: steroid Digoxigenin (DIG), PBS pH 7.4, 25° C., read-out: Inhibition Constant (Ki)
Experimental: (§1) Proteins were expressed in E. coli Rosetta 2 (DE3) cells with a C-terminal TEV protease cleavable His6 tag for biochemical assays. For crystallographic analysis of DIG10 variants, a 12-amino acid structurally disordered C-terminus deriving from the scaffold protein 1z1s was replaced directly with a His6 tag. Binding affinities were determined by equilibrium fluorescence polarization^30 on a SpectraMax M5e microplate reader by monitoring the anisotropy of DIG-conjugated Alexa488 as a function of protein concentration. Equilibrium fluorescence polarization competition assays were performed by examining the effect of increasing concentrations of unlabeled DIG, digitoxigenin, progesterone, and β-estradiol on the anisotropy of designed protein-DIG-conjugated Alexa488 complex.
(§2) Fluorescence polarization binding assays. Fluorescence polarization-based affinity measurements of designs and their evolved variants were performed as described^46 using Alexa488-conjugated DIG (DIG-PEG3-Alexa488). Fluorescence anisotropy (r) was measured in 96-well plate format on a SpectraMax M5e microplate reader (Molecular Devices) with λex=485 nM and λem=538 nM using a 515 nm emission cutoff filter. Fluorescence polarization equilibrium competition binding assays were used to determine the binding affinities of DIG10.3 and its variants for unlabeled digoxigenin, digitoxigenin, progesterone, β-estradiol, and digoxin. The inhibition constant for each protein-ligand interaction, Ki, was calculated from the measured total unlabeled ligand producing 50% binding signal inhibition (I50) and the Kd of the protein-label interaction according to a model accounting for receptor-depletion conditions^46.
(§3) Fluorescence polarization equilibrium competition binding assays. Fluorescence polarization equilibrium competition binding assays were used to determine the binding affinities of DIG10.3 and its variants for unlabeled digoxigenin, digitoxigenin, progesterone, β-estradiol, and digoxin. […] Unlabeled stock solutions of digoxigenin, digitoxigenin, progesterone, and β-estradiol were prepared in methanol. Unlabeled stock solutions of digoxin were prepared in DMSO. Ligand stock solutions were 10 mM for DIG, digitoxigenin, and digoxin, and 1 mM for progesterone and β-estradiol. For each ligand concentration, a negative control sample containing only DIG-PEG3-Alexa488 and the appropriate dilution of a corresponding methanol-only control solution in PBS was measured.
(§4) Fluorescence anisotropy (r) was measured as noted above. In all experiments, PBS (pH 7.4) was used as the buffer system and the temperature was 25° C. The concentration of total unlabeled ligand producing 50% binding signal inhibition (I50) was determined by fitting a plot of the anisotropy averaged over a period of 30 min to 3 hr after reaction initiation versus unlabeled ligand concentration as described previously^47. For some experiments, limiting steroid concentrations made it impossible to collect data in the regime of complete inhibition. In these cases, data were fit by fixing the anisotropy at infinite steroid concentration to a value measured for other steroids for which this value could be determined experimentally. […]
The inhibition constant for each protein-ligand interaction, Ki, was calculated from the measured IC50 and the Kd of the protein-label interaction according to a model accounting for receptor-depletion conditions^47. […]

[2] = Fluorescence polarization equilibrium competition binding assay, unlabeled digitoxigenin; conditions: steroid digitoxigenin; PBS pH 7.4, 25° C.; read-out: Inhibition Constant (Ki)
Experimental: as §1
as §2, with “The inhibition constant for each protein-ligand interaction, Ki, was calculated from the measured total unlabeled ligand producing 50% binding signal inhibition (I50) and the Kd of the protein-label interaction according to a model accounting for receptor-depletion conditions^46.” left out
(§5) Fluorescence polarization equilibrium competition binding assays. Fluorescence polarization equilibrium competition binding assays were used to determine the binding affinities of DIG10.3 and its variants for unlabeled digoxigenin, digitoxigenin, progesterone, β-estradiol, and digoxin. […] For each ligand concentration, a negative control sample containing only DIG-PEG3-Alexa488 and the appropriate dilution of a corresponding methanol-only control solution in PBS was measured.
(§6) Fluorescence anisotropy (r) was measured as noted above. […]

[3] = Fluorescence polarization equilibrium competition binding assay, unlabeled progesterone; conditions: steroid progesterone; PBS pH 7.4, 25° C.; read-out: Inhibition Constant (Ki)
Experimental: as §1
as §2, with “The inhibition constant for each protein-ligand interaction, Ki, was calculated from the measured total unlabeled ligand producing 50% binding signal inhibition (I50) and the Kd of the protein-label interaction according to a model accounting for receptor-depletion conditions^46.” left out
as §5, §6

[4] = Fluorescence polarization equilibrium competition binding assay, unlabeled β-estradiol; conditions: steroid β-estradiol; PBS pH 7.4, 25° C.; read-out: Inhibition Constant (Ki)
Experimental: as §1
as §2, with “The inhibition constant for each protein-ligand interaction, Ki, was calculated from the measured total unlabeled ligand producing 50% binding signal inhibition (I50) and the Kd of the protein-label interaction according to a model accounting for receptor-depletion conditions^46.” left out
as §5, §6

[5] = Fluorescence polarization equilibrium competition binding assay, unlabeled digoxin
Experimental: as §2
as §3, with “Ligand stock solutions were 10 mM for DIG, digitoxigenin, and digoxin, and 1 mM for progesterone and β-estradiol.” left out
as §4, with “In all experiments, PBS (pH 7.4) was used as the buffer system and the temperature was 25° C.” left out, “For some experiments, limiting steroid concentrations made it impossible to collect data in the regime of complete inhibition.” left out

Row | Molecule | DIG binding affinity relative to widely used anti-DIG antibodies [1] | affinity for DIG (in words) [1] | Ki [1] [µM] | Ki [2] [µM] | Ki [3] [µM] | Ki [4] [µM] | affinity for digoxin (in words) [5] | affinity for digoxin compared with DIG ([5]; competition FP) | Ki ([5]; steroid digoxin, PBS pH 7.4, 25° C., read-out: Inhibition Constant (Ki)) [µM]
1 | B1 | within a factor of two | picomolar affinity | 0.000653 ± 0.000262 | 0.019 ± 0.007 | 0.243 ± 0.091 | 2.1 ± 0.8 | picomolar affinity | slightly higher than that for DIG | 0.000223 ± 0.000105
2 | B2 |  |  | 0.58 ± 0.229 | < 0.016 | < 0.017 | 1.6 ± 0.6 |  |  | 
3 | B3 |  |  | 0.039 ± 0.008 | < 0.0038 | 0.03 ± 0.009 | 1.7 ± 0.4 |  |  | 
